Results published in US20240368279A1 (published 2024).

B1: Hu004-68 (antibody, V domains shown)
VH: EVQLVESGGGLVQPGGSLRLSCAASGFTFSGYGMSWVRQAPGKGLEWVATITSGGTYTYYPDSVKGRFTISRDNAKNSLYLQMNSLRAEDTAVYYCARSLAGNAMDYWGQGTLVTVSS
VL: EIVLTQSPVTLSVSPGERATLSCRASQGVTSNLAWYQQKPGQAPRLLIYGASTRATGVPARFSGSGSGTEFTLTISSLQSEDFAVYYCQHRGTFGQGTKVDIK
B2: Hu004-73 antibody (full-length human IgG1, kappa) (antibody, V domains shown)
VH: EVQLVESGGGLVQPGGSLRLSCAASGFTFSGYGMSWVRQAPGKGLEWVATITSGGTYTYYPDSVKGRFTISRDNAKNSLYLQMNSLRAEDTAVYYCARSLAGNAMDYWGQGTLVTVSS
VL: DIQMTQSPSSLSASVGDRVTITCRAGQPLNNYLNWYQQKPGKPPRLLIYAASTLQSGVPSRFSGSGSGTDFTLTISGLQSEDFASYFCQHRVTFGPGTKVDVR

What was measured:
12283-H08H = 12283-H08H (human, UniProt Q08722 19-139); assay: SPR
[1] = biological target: human CD47 protein (antigen of the SPR affinity determination) (human, UniProt Q08722 19-139); assay: SPR

Binder | Kd (12283-H08H) [nM] | Kd [1] [nM]
B1 | 222 | –
B2 | – | 184
